US11994512B2, “Single-cell genomic methods to generate ex vivo cell systems that recapitulate in vivo biology with improved fidelity” (Massachusetts Institute of Technology, priority 2018, dated 2024)

B1: Q8K4B2 (protein, UniProt Q8K4B2 1-609, looked up)
chain: MAGRCGARGALSPQLLLFDLPPALLGELCGILDSCDGPLGWRGLAERLSNSWLDVRHIEKYVNQGKSGTRELLWSWAQKNKTIGDLLEVLQDMGHQRAIHLIINYGVSWTPSVQTHHELPFPSFPPEVKHACRENDPGPLEPANVTVDNVLVPEHNEKGTLQKTPISFQSILEGTKHFHKDFLIGEGEIFEVYRVDIRNQAYAVKLFKQEKKMQLKKHWKRFLSELEVLLLFRHPHILELAAYFTETEKLCLVYPYMSNGTLFDRLQCTNGTTPLSWHVRISVLIGIAKAIQYLHNTQPCAVICGNVSSANILLDDQLQPKLTDFAAAHFRPNLEQQSSTINMTGGGRKHLWYMPEEYIRQGRLSVKTDVYSFGIVIMEVLTGCKVVLDDPKHVQLRDLLMELMEKRGLDSCLSFLDRKIPPCPRNFSAKLFSLAGRCVATKAKLRPTMDEVLSSLESTQPSLYFAEDPPTSLKSFRCPSPLFLDNVPSIPVEDDENQNNHSVPPKEVLGTDRVTQKTPFECSQSEVTFLGLDRNRGNRGSEADCNVPSSSHEECWSPELVAPSQDLSPTVISLGSSWEVPGHSYGSKPMEKRCSSGLFCSEHEQSKKQ
modifications: full-length
B2: Q8K4R4 (protein, UniProt Q8K4R4 1-332, looked up)
chain: MLLKEYRICMPLTVDEYKIGQLYMISKHSHEQSDRGEGVEVVQNEPFEDPHHGNGQFTEKRVYLNSKLPSWARAVVPKIFYVTEKAWNYYPYTITEYTCSFLPKFSIHIETKYEDNKGSNDSIFDSEAKDLEREVCFIDIACDEIPERYYKESEDPKHFKSEKTGRGQLREGWRDNHQPIMCSYKLVTVKFEVWGLQTRVEQFVHKVVRDILLIGHRQAFAWVDEWYDMTMDEVREFERATQEATNKKIGVFPPAISISSIALLPSSVRSAPSSAPSTPLSTDAPEFLSIPKDRPRKKSAPETLTLPDPEKKATLNLPGVYTSEKPCRPKSE
modifications: full-length
B3: Q8VE33 (protein, UniProt Q8VE33 1-370, looked up)
chain: MATPNNLTPTNCSWWPISALESDAAKPVETPDAPEASSPAHWPKESLVLYHWTQSFSSQKRLQVRLVIAEKGLACEERDVSLPQSEHKEPWFMRLNLGEEVPVIIHRDNIISDYDQIIDYVERTFTGEHVVALMPEAGSPQHARVLQYRELLDALPMDAYTHGCILHPELTTDSMIPKYATAEIRRHLANATTDLMKLDHEEEPQLSEPYLSKQKKLMAKILEHDDVSYLKKILGELAMVLDQIEAELEKRKLENEGQTCELWLCGCAFTLADVLLGATLHRLKFLGLSKKYWEDGSRPNLQSFFERVQRRFAFRKVLGDIHTTLLSAVIPNAFRLVKRKPPSFFGASFLMGSLGGMGYFAYWYLKKKYI
modifications: full-length
B4: Q8VEE1 (protein, UniProt Q8VEE1 1-365, looked up)
chain: MAKVAKDLNPGVQKMSLGQQQSARGVACLRCKGMCSGFEPHSWRKICKSCKCSQEEHCLSSDLDDDRKIGRLLMDSKYATLTARVKGGDGIRIYKRNRMIMTNPIATGKDPTFDTITYEWAPPGVTQKLGLQYMELIPKERQPVTGTEGALYRRRQLMHQLPIYDQDPSRCRGLVENELKAMEEFVKHYKSEALGVGEVALPGQGGLPKEENKTQEKPEGTETTAPTTNGSLGDPSKEVEYVCELCKGAAPVDSPVVYADRAGYSKQWHPTCFQCIKCSEPLVDLIYFWKDGAPWCGRHYCESVRPRCSGCDEIIFSEDYQRVEDLAWHRKHFICEGCEQLLSGRAYIVTKGQLLCPTCSKSKRS
modifications: full-length
B5: Q8VCI0 (protein, UniProt Q8VCI0 1-550, looked up)
chain: MCHRSPGRSLRPPSPLLLLLPLLLQPPWAAGAASQSDPTGVHCATAYWSPESKKVEIKTVLDKNGDAYGYYNDSIKTTGWGILEIRAGYGSQVLSNEIIMFLAGYLEGYLTALHMYDHFTNLYPQLIKNPSIVKKVQDFMEKQEMWTRQNIKAQKDDPFWRHTGYVVTQLDGLYLGAQKRASEEKIKPMTMFQIQFLNAVGDLLDLIPSLSPTKSSSMMKFKIWEMGHCSALIKVLPGFENIYFAHSSWYTYAAMLRIYKHWDFNIKDKYTLSKRLSFSSYPGFLESLDDFYILSSGLILLQTTNSVYNKTLLKQVVPKTLLAWQRVRVANMMAEGGKEWAQIFSKHNSGTYNNQYMVLDLKKVTINRSLDKGTLYIVEQIPTYVEYSDQTNVLRKGYWASYNIPFHKTIYNWSGYPLLVHKLGLDYSYDLAPRAKIFRRDQGNVTDMASMKYIMRYNNYKEDPYSKGDPCSTICCREDLNGASPSPGGCYDTKVADIFLASQYKAYAISGPTVQDGLPPFNWNRFNETLHRGMPEVFDFNFVTMKPILS
modifications: full-length
B6: Q8K354 (protein, UniProt Q8K354 1-277, looked up)
chain: MSSCSRVALVTGANKGIGFAITRDLCRKFSGDVVLTARDEARGRAAVQQLQAEGLSPRFHQLDIDDPQSIRALRDFLRKEYGGLNVLVNNAGIAFRMDDPTPFDIQAEVTLKTNFFATRNVCTELLPIMKPHGRVVNISSLQGLKALENCREDLQEKFRCDTLTEVDLVDLMKKFVEDTKNEVHEREGWPDSAYGVSKLGVTVLTRILARQLDEKRKADRILLNACCPGWVKTDMARDQGSRTVEEGAETPVYLALLPPDATEPHGQLVRDKVVQTW
modifications: full-length
B7: Q8K023 (protein, UniProt Q8K023 1-323, looked up)
chain: MNSKIQKIELNDGHSIPVLGFGTYATEEHLKKKSMESTKIAIDVGFCHIDCSHLYQNEEEIGQAILSKIEDGTVKREDIFYTSKLWSTSHRPELVRPSLENSLRKLNLDYVDLYLIHFPVSLKPGNELLPKDEHGNLIFDTVDLCDTWEAMEKCKDAGLAKSIGVSNFNRRQLEMILNKPGLKYKPVCNQVECHLYLNQSKLLAYCKMNDIVLVAYGALGTQRYKYCINEDTPVLLDDPVLCAMAKKYKRTPALIALRYQLDRGIVALAKSFNEERIRENMQVFDFQLASDDMKILDGLDRNLRYFPADMFKAHPNFPFFDEY
modifications: full-length
B8: Q8VHC3 (protein, UniProt Q8VHC3 1-145, looked up)
chain: MSILLSPPSLLLLLAALVAPATSTTNYRPDWNRLRGLARGRVETCGGUQLNRLKEVKAFVTEDIQLYHNLVMKHLPGADPELVLLSRNYQELERIPLSQMTRDEINALVQELGFYRKSAPEAQVPPEYLWAPAKPPEEASEHDDL
modifications: full-length
B9: Q8R550 (protein, UniProt Q8R550 1-709, looked up)
chain: MVEAIVEFDYQAQHDDELTISVGEVITNIRKEDGGWWEGQINGRRGLFPDNFVREIKKDMKKDLLSNKAPEKPMHDVSSGNALLSSETILRTNKRGERRRRRCQVAFSYLPQNDDELELKVGDIIEVVGEVEEGWWEGVLNGKTGMFPSNFIKELSGESDELGISQDEQLSKSRPEGFLPASLLPFPAHGAKGKTTFEGTILYRAAPGKTEGHRRYYSLRETTGSESDGGDSSSTKSEGANGTMATAAIQPKKVKGVGFGDIFKDKPIKLRPRSIEVENDFLPVEKTIGKKLPPATSTPDPSKTEMDSRTKTKDYCKVIFPYEAQNDDELTIKEGDIVTLINKDCIDVGWWEGELNGRRGVFPDNFVKLLPSDFDKEGNRPKKPPPPSAPVVKQGAGTTERKHEIKKIPPERPETLPNRTEEKERPEREPKLDLQKPSVPAIPPKKPRPPKTNSLNRPGALPPRRPERPVGPLTHTRGDSPKIDLAGSALSGILDKDLSDRSNDIDLEGFDSVISSTEKLSHPTTSRPKATGRRPPSQSLTSSSLSSPDIFDSPSPEEDKEEHISLAHRGIDVSKKTSKTVTISQVSDNKTSLPPKPGTMAAASSGPASLSSVASSPMSSSLGTAGQRASSPSLFSTEGKPKMEPAVSSQAAIEELKMQVRELRTIIETMKDQQKREIKQLLSELDEEKKIRLRLQMEVNDIKKALQSK
modifications: full-length
B10: Q8VCT4 (protein, UniProt Q8VCT4 1-565, looked up)
chain: MGLYPLIWLSLAACTAWGYPSSPPVVNTVKGKVLGKYVNLEGFTQPVAVFLGVPFAKPPLGSLRFAPPQPAEPWSFVKNTTSYPPMCSQDAVGGQVLSELFTNRKENIPLQFSEDCLYLNIYTPADLTKNSRLPVMVWIHGGGLVVGGASTYDGLALSAHENVVVVTIQYRLGIWGFFSTGDEHSRGNWGHLDQVAALRWVQDNIANFGGNPGSVTIFGESAGGFSVSVLVLSPLAKNLFHRAISESGVSLTAALITTDVKPIAGLVATLSGCKTTTSAVMVHCLRQKTEDELLETSLKLNLFKLDLLGNPKESYPFLPTVIDGVVLPKAPEEILAEKSFSTVPYIVGINKQEFGWIIPTLMGYPLAEGKLDQKTANSLLWKSYPTLKISENMIPVVAEKYLGGTDDLTKKKDLFQDLMADVVFGVPSVIVSRSHRDAGASTYMYEFEYRPSFVSAMRPKAVIGDHGDEIFSVFGSPFLKDGASEEETNLSKMVMKFWANFARNGNPNGGGLPHWPEYDQKEGYLKIGASTQAAQRLKDKEVSFWAELRAKESAQRPSHREHVEL
modifications: full-length

The molecules below were run on intracellular proteome of ENR+CD and ENR organoids (assay: LC-MS/MS TMT proteomics of ENR+CD versus ENR organoids). Settings: ENR+CD versus ENR organoids, sample pairs in aggregate (n=4, 2 technical replicates from two biological donors).
Type: cell-based, C57BL/6 mice

Molecule	Average logFC
B1	1.198
B2	1.235
B3	1.453
B4	−1.258
B5	−1.188
B6	−1.221
B7	−1.451
B8	1.481
B9	1.492
B10	−1.924

Same assay, conditions: protein abundance ratio ENR+CD versus ENR organoids, sample pair M1-1; LC-MS/MS TMT proteomics

Molecule	M1-1 Log2 Median Normalized
B1	1.448
B2	1.072
B3	2.102
B4	−1.327
B5	−1.187
B6	−1.154
B7	−1.063
B8	1.688
B9	1.738
B10	−1.923

Same assay, conditions: protein abundance ratio ENR+CD versus ENR organoids, sample pair M1-2; LC-MS/MS TMT proteomics

Molecule	M1-2 Log2 Median Normalized
B1	0.943
B2	0.913
B3	0.932
B4	−1.525
B5	−1.193
B6	−1.435
B7	−0.99
B8	1.48
B9	1.082
B10	−1.965

Same assay, conditions: protein abundance ratio ENR+CD versus ENR organoids, sample pair M2-1; LC-MS/MS TMT proteomics

Molecule	M2-1 Log2 Median Normalized
B1	1.1955
B2	1.6335
B3	1.1705
B4	−1.0345
B5	−1.4105
B6	−1.8555
B7	−1.9945
B8	1.1495
B9	1.8435
B10	−2.3285

Same assay, conditions: protein abundance ratio ENR+CD versus ENR organoids, sample pair M2-2; LC-MS/MS TMT proteomics

Molecule	M2-2 Log2 Median Normalized
B1	1.204
B2	1.321
B3	1.609
B4	−1.145
B5	−0.754
B6	−0.441
B7	−1.758
B8	1.521
B9	1.303
B10	−1.001

Same assay, conditions: up = enriched in ENR+CD, down = enriched in ENR; FDR<0.05 and log fold change cut-off

Molecule	change
B1	up
B2	up
B3	up
B4	down
B5	down
B6	down
B7	down
B8	up
B9	up
B10	down
